According to patent publication US20250277196A1, “EPSPS MUTANTS AND METHOD OF ITS USES” (CROPEDIT BIOTECHNOLOGY INC., priority 2021, published 2025):

Columns and labels:
E. coli lacking EPSPS [1] = test: Glyphosate resistance comparison among rice EPSPS mutants: growth of transformed E. coli on M9 medium with different glyphosate concentrations; format: cell-based, Escherichia coli
Experimental: (§1) a) PCR system: According to the primer and template mixed PCR system corresponding to the target vector in the above table, the forward primer was 1.25 μl, the reverse primer was 1.25 μl, the template plasmid was 2 μl, the Q5 PCR master mix was 12.5 μl, and ddH2O was […].
b) PCR reaction conditions were as following: the annealing temperature was set according to the annealing temperature corresponding to the target carrier in the above table.
(§2) c) Took out 5 μl of the obtained PCR product and added it to the loading buffer for agarose gel electrophoresis. A band with a size of about 4.5 kb was considered successful.
d) Used NEB's KLD enzyme mixture to remove the template and connected the PCR product. The connection system was 5 μl KLD buffer, 1 μl KLD MIX, 1 μl PCR product, and ddH2O 3 μl. After ligating at room temperature for 5 min, transformed it into E. coli.
e) The ligation product was transformed into Dh5a competent E. coli lacking EPSPS. After resuscitation, the cells were washed twice with M9 medium, and then the washed cells were spread on M9 medium and cultured for 48 h. Sequenced the grown single colony (Tsingke Biological Technology Co., Ltd.), and selected the correct mutant to save for future use.
OsWt represents the wild type rice EPSPS(SEQ ID NO:2). […] OsGA represents the mutated rice EPSPS with mutation G172A. (SEQ ID NO:7) OsPS represents the mutated rice EPSPS with mutation P177S. (SEQ ID NO:8) OsGAPS represents the mutated rice EPSPS with mutation G172A and P177S. (SEQ ID NO:9) OsGAVA represents the mutated rice EPSPS with mutation G172A and V403A(SEQ ID NO:4). OsPSVA represents the mutated rice EPSPS with mutation P177S and V403A(SEQ ID NO:5). OsGPV represents the mutated rice EPSPS with mutation G172A, P177S and V403A(SEQ ID NO:6). OsTIPS represents the mutated rice EPSPS with mutation T173I and P177S. (SEQ ID NO: 35). OsTIPT represents the mutated rice EPSPS with mutation T173I and P177T. (SEQ ID NO:36). OsTIPSVA represents the mutated rice EPSPS with mutation T173I, P177S and V403A. (SEQ ID NO:37). OsTIPTVA represents the mutated rice EPSPS with mutation T173I, P177T and V403A. (SEQ ID NO:38). CP4 represents the wild type EPSPS from Agrobacterium tumefaciens. (SEQ ID NO:39)
Each product obtained from the above steps were transformed into E. coli lacking EPSPS. By detecting the growth of the transformed Escherichia coli on M9 medium containing different glyphosate concentrations (0 mM, 0.5 mM, 2 mM, 4 mM, 5 mM, 25 mM, 75 mM, 100 mM), the 1 mM glyphosate here was equivalent to […] glyphosate acid, the glyphosate resistance of rice EPSPS mutants was verified.

[2] = tested on: T1 generation transgenic rice; test: Glyphosate resistance of T1 generation transgenic rice seedlings (FIG. 10); format: in vivo; conditions: 100 ppm glyphosate aqueous solution (Roundup), cultivated 10 days; wild-type rice control significantly inhibited and died
Description: The rice seed used in this example is RICE KENG XIANG DA008-169, which is publicly available.
Nucleic acid sequence encoding OsGPV mutants (comprising G172A, P177S and V403A) (SEQ ID NO:6) were inserted into the plant expression vector according to the conventional methods to obtain the pk510 vector expressing the OsGPV gene. (see FIG. 9)
1) The transgenic vector pk510 was introduced into Agrobacterium EHA105 to obtain recombinant Agrobacterium.
2) One to five days before the transformation experiment, recombinant Agrobacterium was inoculated on YEB solid medium containing 50 mg/L kanamycin and 15 mg/L rifampicin. The medium was sealed in the dish with 3M tape; kept at temperature at 28° C. in an inverted dish orientation and cultured it in dark for one to five days.
3) The bacteria was scraped at the “Z”-shaped tail with the inoculation ring, and gently suspended in […] NB liquid medium containing 2 mg/L 2,4-dichlorophenoxyacetic acid to make the concentration of the bacteria liquid reach approximately O.D. 600=0.1, and then reserve the make Agrobacterium infection solution.
4) After removing the rice seed coat, the rice seed was placed in a triangular flask, washed 3 times with sterile water. 75% alcohol was added to immerse the seeds, shaken gently for 1 min, and the alcohol discarded. […]

E. coli lacking EPSPS [3] = test: Resistance test of wheat EPSPS mutant and comparison with wild type (FIG. 4); format: cell-based; conditions: 0.2 mM glyphosate
Description: The gene was synthesized according to the V403A mutant sequence information (SEQ ID NO:32) of the EPSPS gene on chromosome 7 of the wheat A genome and inserted into the vector pKED2 to obtain the wheat (Triticum vulgare) EPSPS mutant expression vector TaVA containing the V403A mutation. The A403 site of TaVA was mutated back to V by PCR, and a TaWt vector expressing the EPSPS wild-type gene on chromosome 7 of wheat A genome was obtained.
as §1
b) PCR reaction conditions were as follows: the annealing temperature was set according to the annealing temperature corresponding to the target carrier in the above table.
as §2
d) Used NEB's KLD enzyme mixture to remove the template and then connected the PCR product. The connection system was 5 μl KLD buffer, 1 μl KLD MIX, 1 μl PCR product, and ddH2O 3 μl. After ligating at room temperature for 5 min, transformed it into E. coli.
e) The ligation product was transformed into Dh5a competent E. coli lacking EPSPS. […]

B1: OsGPV: mutated rice EPSPS with mutation G172A, P177S and V403A (SEQ ID NO:6) (protein)
chain: MAAKAEEIVLQPIREISGAVQLPGSKSLSNRILLLSALSEGTTVVDNLLNSEDVHYMLEALKALGLSVEADKVAKRAVVVGCGGKFPVEKDAKEEVQLFLGNAATAMRSLTAAVTAAGGNATYVLDGVPRMRERPIGDLVVGLKQLGADVDCFLGTECPPVRVKGIGGLPGGKVKLSGSISSQYLSALLMAAPLALGDVEIEIIDKLISIPYVEMTLRLMERFGVKAEHSDSWDRFYIKGGQKYKSPGNAYVEGDASSASYFLAGAAITGGTVTVQGCGTTSLQGDVKFAEVLEMMGAKVTWTDTSVTVTGPPREPYGKKHLKAVDVNMNKMPDAAMTLAVVALFADGPTAIRDVASWRVKETERMVAIRTELTKLGASVEEGPDYCIITPPEKLNITAIDTYDDHRMAMAFSLAACADVPVTIRDPGCTRKTFPNYFDVLSTFVRN
modifications: This sequence is synthesized in lab.
- glyphosate resistance compared with CP4 EPSPS (E. coli lacking EPSPS [1]; 100 mM glyphosate medium, FIG. 2): comparable
- glyphosate concentration of the medium on which the strain can grow (E. coli lacking EPSPS [1]; M9 medium, tested 0, 0.5, 2, 4, 5, 25, 75, 100 mM glyphosate, FIG. 2, FIG. 3): 100 mM
- growth of transgenic rice seedlings in glyphosate solution [2]: not significantly affected

B2: TaVA (protein)
DNA: MAGAEEVVLQPIREISGAVQLPGSKSLSNRILLLSALSEGTTVVDNLLNSEDVHYMLEALEALGLSVEADKVAKRAVVVGCGGRFPVEKDAKEEVKLFLGNAGTAMRPLTAAVVAAGGNATYVLDGVPRMRERPIGDLVVGLQQLGADVDCFLGTNCPPVRINGKGGLPGGKVKLSGSISSQYLSSLLMAAPLALEDVEIEIIDKLISVPYVEMTLKLMEHFGVTAEHSDSWDRFYIKGGQKYKSPGNAYVEGDASSASYFLAGAAITGGTVTVEGCGTTSLQGDVKFAEVLEMMGAKVTWTDTSVTVTGPPRQPFGRKHLKAVDVNMNKMPDAAMTLAVVALFADGPTAIRDVASWRVKETERMVAIRTELTKLGATVEEGPDYCIITPPEKLNITAIDTYDDHRMAMAFSLAACAEVPVTIRDPGCTRKTFPNYFDVLSTFVKN
modifications: This sequence is synthesized in lab.
- growth state compared with TaWt (E. coli lacking EPSPS [3]): significantly higher than that of TaWt
